Test results reported in the RNAGym collection of RNA variant scans (doi:10.7554/elife.80360).

B1: CPEB3 Ribozyme (parent)
chain: GGGGGCCACAGCAGAAGCGUUCACGUCGCGGCCCCUGUCAGAUUCUGGUGAAUCUGCGAAUUCUGCUGU

Variants of: B1
Experiment: self-cleavage, relative activity (ratio to wild type); higher = more cleavage; co-transcriptional

Going from C29G A40C to C29G A40G, the self-cleavage rises from 0.157 to 0.457.

Compared with C29G A40U, C29G A42G is higher in self-cleavage: 0.277 for the first, 0.445 for the second.

Compared with C29G A42U, C29G A52G is higher in self-cleavage: 0.385 for the first, 0.53 for the second.

First: C29G A52U
Second: C29G A59C
The self-cleavage of the first is higher: 0.504 for the first, 0.272 for the second.

Compared with C29G A59U, C29G A60C is lower in self-cleavage: 0.203 for the first, 0.108 for the second.

Going from C29G A60G to C29G A60U, the self-cleavage falls from 0.337 to 0.204.

Going from C29G C32A to C29G C32G, the self-cleavage falls from 0.196 to 0.18.

Going from C29G C33A to C29G C33G, the self-cleavage falls from 0.212 to 0.16.

Going from C29G C34G to C29G C35A, the self-cleavage falls from 0.294 to 0.234.

First: C29G C35G
Second: C29G C35U
The self-cleavage of the first is lower: 0.301 for the first, 0.307 for the second.

First: C29G C39A
Second: C29G C45A
The self-cleavage of the first is lower: 0.213 for the first, 0.402 for the second.

First: C29G C45G
Second: C29G C54A
The self-cleavage of the first is higher: 0.407 for the first, 0.259 for the second.

Compared with C29G C57A, C29G C57G is lower in self-cleavage: 0.215 for the first, 0.183 for the second.

First: C29G C57U
Second: C29G C63A
The self-cleavage of the first is lower: 0.206 for the first, 0.23 for the second.

First: C29G C63U
Second: C29G C66A
The self-cleavage of the first is higher: 0.418 for the first, 0.312 for the second.

Compared with C29G C66U, C29G G30A is lower in self-cleavage: 0.418 for the first, 0.173 for the second.

First: C29G G30C
Second: C29G G31A
The self-cleavage of the first is higher: 0.271 for the first, 0.146 for the second.

Compared with C29G G31U, C29G G37U is higher in self-cleavage: 0.131 for the first, 0.185 for the second.

First: C29G G41A
Second: C29G G47A
The self-cleavage of the first is lower: 0.236 for the first, 0.553 for the second.

First: C29G G47C
Second: C29G G47U
The self-cleavage of the first is lower: 0.558 for the first, 0.612 for the second.

First: C29G G48A
Second: C29G G48C
The self-cleavage of the first is lower: 0.667 for the first, 0.698 for the second.

Going from C29G G48U to C29G G50A, the self-cleavage rises from 0.602 to 0.609.

First: C29G G50U
Second: C29G G56A
The self-cleavage of the first is higher: 0.535 for the first, 0.299 for the second.

Compared with C29G G56C, C29G G56U is higher in self-cleavage: 0.225 for the first, 0.292 for the second.

Going from C29G G58C to C29G G58U, the self-cleavage rises from 0.416 to 0.558.

Going from C29G G65A to C29G G65C, the self-cleavage falls from 0.286 to 0.232.

Compared with C29G G65U, C29G G68A is higher in self-cleavage: 0.182 for the first, 0.845 for the second.

First: C29G G68C
Second: C29G U36A
The self-cleavage of the first is higher: 0.715 for the first, 0.157 for the second.

Compared with C29G U36G, C29G U38C is higher in self-cleavage: 0.236 for the first, 0.302 for the second.

Compared with C29G U38G, C29G U43G is higher in self-cleavage: 0.207 for the first, 0.393 for the second.

First: C29G U44A
Second: C29G U44C
The self-cleavage of the first is higher: 0.338 for the first, 0.314 for the second.

First: C29G U46A
Second: C29G U46G
The self-cleavage of the first is higher: 0.707 for the first, 0.603 for the second.

Compared with C29G U49A, C29G U49G is higher in self-cleavage: 0.521 for the first, 0.65 for the second.

Going from C29G U53A to C29G U53C, the self-cleavage falls from 0.308 to 0.193.

First: C29G U53G
Second: C29G U55A
The self-cleavage of the first is higher: 0.389 for the first, 0.267 for the second.

Compared with C29G U55C, C29G U55G is lower in self-cleavage: 0.253 for the first, 0.171 for the second.

First: C29G U61A
Second: C29G U62A
The self-cleavage of the first is higher: 0.57 for the first, 0.254 for the second.

Compared with C29G U62C, C29G U62G is lower in self-cleavage: 0.251 for the first, 0.206 for the second.

Compared with C29G U64C, C29G U64G is lower in self-cleavage: 0.369 for the first, 0.279 for the second.

Going from C29G U69A to C29G U69C, the self-cleavage rises from 0.757 to 0.892.

First: C29U
Second: C29U A40C
The self-cleavage of the first is higher: 0.557 for the first, 0.203 for the second.

Going from C29U A40G to C29U A40U, the self-cleavage falls from 0.288 to 0.157.

Going from C29U A42U to C29U A51G, the self-cleavage rises from 0.262 to 0.537.

Going from C29U A52C to C29U A52G, the self-cleavage rises from 0.417 to 0.529.

Compared with C29U A52U, C29U A59C is lower in self-cleavage: 0.396 for the first, 0.237 for the second.

Compared with C29U A59G, C29U A60G is lower in self-cleavage: 0.58 for the first, 0.345 for the second.

Going from C29U A60U to C29U C32G, the self-cleavage falls from 0.23 to 0.165.

Compared with C29U C32U, C29U C33A is lower in self-cleavage: 0.645 for the first, 0.355 for the second.

First: C29U C33G
Second: C29U C34A
The self-cleavage of the first is lower: 0.226 for the first, 0.299 for the second.

First: C29U C34G
Second: C29U C34U
The self-cleavage of the first is lower: 0.276 for the first, 0.495 for the second.

Going from C29U C35U to C29U C39A, the self-cleavage falls from 0.314 to 0.16.

Going from C29U C39U to C29U C45A, the self-cleavage rises from 0.193 to 0.307.

Going from C29U C45G to C29U C45U, the self-cleavage rises from 0.404 to 0.505.

Going from C29U C54G to C29U C54U, the self-cleavage rises from 0.219 to 0.448.

Compared with C29U C57A, C29U C57G is higher in self-cleavage: 0.154 for the first, 0.177 for the second.

Compared with C29U C57U, C29U C63U is higher in self-cleavage: 0.227 for the first, 0.253 for the second.

Going from C29U C66A to C29U C66U, the self-cleavage rises from 0.235 to 0.242.

Compared with C29U G30C, C29U G30U is lower in self-cleavage: 0.232 for the first, 0.169 for the second.

Going from C29U G31A to C29U G31U, the self-cleavage falls from 0.315 to 0.221.

First: C29U G37A
Second: C29U G37C
The self-cleavage of the first is lower: 0.157 for the first, 0.162 for the second.

Going from C29U G37U to C29U G41A, the self-cleavage rises from 0.121 to 0.184.

First: C29U G41C
Second: C29U G47A
The self-cleavage of the first is lower: 0.173 for the first, 0.598 for the second.

Compared with C29U G47C, C29U G48A is lower in self-cleavage: 0.62 for the first, 0.601 for the second.

First: C29U G48U
Second: C29U G50A
The self-cleavage of the first is higher: 0.583 for the first, 0.524 for the second.

First: C29U G50C
Second: C29U G50U
The self-cleavage of the first is lower: 0.321 for the first, 0.517 for the second.

Compared with C29U G56A, C29U G56U is lower in self-cleavage: 0.244 for the first, 0.198 for the second.

Going from C29U G58A to C29U G58U, the self-cleavage rises from 0.372 to 0.641.

First: C29U G65A
Second: C29U G65C
The self-cleavage of the first is lower: 0.19 for the first, 0.272 for the second.

Compared with C29U G65U, C29U G68A is higher in self-cleavage: 0.167 for the first, 0.586 for the second.

Compared with C29U G68U, C29U U36A is lower in self-cleavage: 0.515 for the first, 0.132 for the second.

Compared with C29U U38C, C29U U38G is higher in self-cleavage: 0.189 for the first, 0.238 for the second.

Compared with C29U U43C, C29U U44C is higher in self-cleavage: 0.301 for the first, 0.311 for the second.

First: C29U U44G
Second: C29U U46A
The self-cleavage of the first is lower: 0.3 for the first, 0.699 for the second.

Going from C29U U49A to C29U U49C, the self-cleavage falls from 0.542 to 0.411.

Compared with C29U U49G, C29U U55A is lower in self-cleavage: 0.514 for the first, 0.173 for the second.

Going from C29U U55C to C29U U55G, the self-cleavage falls from 0.199 to 0.167.

First: C29U U61A
Second: C29U U61G
The self-cleavage of the first is higher: 0.244 for the first, 0.218 for the second.

First: C29U U62C
Second: C29U U62G
The self-cleavage of the first is higher: 0.211 for the first, 0.21 for the second.

Compared with C29U U64C, C29U U67A is lower in self-cleavage: 0.371 for the first, 0.21 for the second.

Going from C29U U67C to C29U U67G, the self-cleavage rises from 0.308 to 0.359.

First: C29U U69A
Second: C29U U69C
The self-cleavage of the first is lower: 0.619 for the first, 0.834 for the second.

First: C29U U69G
Second: G30A
The self-cleavage of the first is lower: 0.737 for the first, 0.913 for the second.

Going from G30A A40C to G30A A40G, the self-cleavage rises from 0.276 to 0.754.

G30A A40U showed a self-cleavage of 0.461.
